Source: the supplement of paper PMC10567573

B1: KCNA3 (parent)
chain: GERVVINISGLRFETQLKTLCQFP

Variants of: B1
Assay: protein stability index of a GFP-peptide fusion (GPS, HEK-293T) (PSI 1-6); higher = more stable
Conditions: c terminus: a fixed tail appended
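Note: lentivirally expressed fusions sorted by FACS into six bins by GFP to DsRed ratio, PSI derived from sequencing read proportions per bin multiplied by bin number.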

| Variant | protein stability index |
| --- | --- |
| GERVVINISGLRFETQLMTLCQFP [K18M] | 3.17 |
| GERVVINISGLRFETQLATLCQFP [K18A] | 3.07 |
| GERVVINISGLRFETQLCTLCQFP [K18C] | 1.92 |
| GERVVINISGLRFETQLSTLCQFP [K18S] | 1.78 |
| GERVVINISGLRFETMLKTLCQFP [Q16M] | 4.05 |
| GERVNINISGLRFETQLKTLCQFP [V5N] | 1.76 |
| GERVFINISGLRFETQLKTLCQFP [V5F] | 2.05 |
| GERVYINISGLRFETQLKTLCQFP [V5Y] | 2.39 |
| GERVPINISGLRFETQLKTLCQFP [V5P] | 2.17 |
| GERVRINISGLRFETQLKTLCQFP [V5R] | 2.18 |
| GERVKINISGLRFETQLKTLCQFP [V5K] | 2.49 |
| GERVHINISGLRFETQLKTLCQFP [V5H] | 1.93 |
| GERVVINISGFRFETQLKTLCQFP [L11F] | 1.61 |
| GERVVINISGERFETQLKTLCQFP [L11E] | 2.01 |
| GERVVINISGLRFETQLKTLCQLP [F23L] | 1.95 |
| GERVVINISGLRFETQLKTLCQIP [F23I] | 2.48 |
| GERVVINISGLRFETQNKTLCQFP [L17N] | 2.04 |
| GERVVINISGLRFETQVKTLCQFP [L17V] | 2.92 |
| GERVVINISGLRFETQHKTLCQFP [L17H] | 3.03 |
| GERVVINISGLRFETQAKTLCQFP [L17A] | 2.88 |
| GERVVINISGLRFETQIKTLCQFP [L17I] | 2.92 |
| GQRVVINISGLRFETQLKTLCQFP [E2Q] | 3.74 |
| GNRVVINISGLRFETQLKTLCQFP [E2N] | 2.26 |
| GERVVINISGLRFETQLKTLCLFP [Q22L] | 1.84 |

| Variant | protein stability index |
| --- | --- |
| GERVVINISGLRFETQLKTLCAFP [Q22A] | 1.9 |
| GERVVINISRLRFETQLKTLCQFP [G10R] | 1.26 |
| GERVVINISFLRFETQLKTLCQFP [G10F] | 2.81 |
| GEDVVINISGLRFETQLKTLCQFP [R3D] | 2.44 |
| GEMVVINISGLRFETQLKTLCQFP [R3M] | 4.26 |
| GEHVVINISGLRFETQLKTLCQFP [R3H] | 1.04 |
| GEKVVINISGLRFETQLKTLCQFP [R3K] | 2.73 |
| GERHVINISGLRFETQLKTLCQFP [V4H] | 2.16 |
| GERPVINISGLRFETQLKTLCQFP [V4P] | 2.13 |
| GERGVINISGLRFETQLKTLCQFP [V4G] | 1.66 |
| GERTVINISGLRFETQLKTLCQFP [V4T] | 2.27 |
| GEREVINISGLRFETQLKTLCQFP [V4E] | 1.92 |
| GERNVINISGLRFETQLKTLCQFP [V4N] | 1.64 |
| GERSVINISGLRFETQLKTLCQFP [V4S] | 2.59 |
| GERVVINIAGLRFETQLKTLCQFP [S9A] | 1.29 |
| GERVVINIQGLRFETQLKTLCQFP [S9Q] | 3.24 |
| CERVVINISGLRFETQLKTLCQFP [G1C] | 2.8 |
| SERVVINISGLRFETQLKTLCQFP [G1S] | 3 |
| HERVVINISGLRFETQLKTLCQFP [G1H] | 2.1 |
| YERVVINISGLRFETQLKTLCQFP [G1Y] | 4.07 |
| IERVVINISGLRFETQLKTLCQFP [G1I] | 3.44 |
| NERVVINISGLRFETQLKTLCQFP [G1N] | 2.16 |
| GERVVINISGLRFETQLKTLCQFE [P24E] | 4.68 |
| GERVVINISGLRFETQLKTLCQFF [P24F] | 3.52 |

| Variant | protein stability index |
| --- | --- |
| GERVVINISGLRFETQLKTLCQFL [P24L] | 2.2 |
| GERVVINISGLRFETQLKTLCQFN [P24N] | 3.07 |
| GERVVINISGLRFETQLKTLCQFC [P24C] | 2.4 |
| GERVVINISGLKFETQLKTLCQFP [R12K] | 2.5 |
| GERVVINISGLWFETQLKTLCQFP [R12W] | 2.37 |
| GERVVINISGLYFETQLKTLCQFP [R12Y] | 2.61 |
| GERVVINISGLPFETQLKTLCQFP [R12P] | 1.45 |
| GERVVINISGLLFETQLKTLCQFP [R12L] | 4.18 |
| GERVVINISGLQFETQLKTLCQFP [R12Q] | 2.21 |
| GERVVINISGLRFETQLKALCQFP [T19A] | 1.87 |
| GERVVINISGLRFETQLKELCQFP [T19E] | 2 |
| GERVVINISGLRFETQLKHLCQFP [T19H] | 1.78 |
| GERVVINISGLRPETQLKTLCQFP [F13P] | 2.27 |
| GERVVINISGLRDETQLKTLCQFP [F13D] | 1.48 |
| GERVVINISGLRQETQLKTLCQFP [F13Q] | 1.87 |
| GERVVRNISGLRFETQLKTLCQFP [I6R] | 2.21 |
| GERVVMNISGLRFETQLKTLCQFP [I6M] | 1.32 |
| GERVVPNISGLRFETQLKTLCQFP [I6P] | 3.15 |
| GERVVGNISGLRFETQLKTLCQFP [I6G] | 1.74 |
| GERVVTNISGLRFETQLKTLCQFP [I6T] | 2.75 |
| GERVVKNISGLRFETQLKTLCQFP [I6K] | 2.68 |
| GERVVNNISGLRFETQLKTLCQFP [I6N] | 3.47 |
| GERVVYNISGLRFETQLKTLCQFP [I6Y] | 1.33 |
| GERVVINPSGLRFETQLKTLCQFP [I8P] | 3.11 |

| Variant | protein stability index |
| --- | --- |
| GERVVINQSGLRFETQLKTLCQFP [I8Q] | 2.12 |
| GERVVINRSGLRFETQLKTLCQFP [I8R] | 1.83 |
| GERVVINMSGLRFETQLKTLCQFP [I8M] | 1.65 |
| GERVVINDSGLRFETQLKTLCQFP [I8D] | 2.82 |
| GERVVINYSGLRFETQLKTLCQFP [I8Y] | 2 |
| GERVVINASGLRFETQLKTLCQFP [I8A] | 1.67 |
| GERVVINGSGLRFETQLKTLCQFP [I8G] | 2.23 |
| GERVVINKSGLRFETQLKTLCQFP [I8K] | 1.97 |
| GERVVINISGLRFETQLKTKCQFP [L20K] | 3.74 |
| GERVVINISGLRFETQLKTQCQFP [L20Q] | 1.2 |
| GERVVINISGLRFETQLKTNCQFP [L20N] | 2.33 |
| GERVVINISGLRFETQLKTICQFP [L20I] | 1.56 |
| GERVVINISGLRFETQLKTLRQFP [C21R] | 3.08 |
| GERVVINISGLRFETQLKTLFQFP [C21F] | 2.95 |
| GERVVINISGLRFETQLKTLTQFP [C21T] | 2.68 |
| GERVVINISGLRFETQLKTLMQFP [C21M] | 1.12 |
| GERVVINISGLRFNTQLKTLCQFP [E14N] | 2.08 |
| GERVVINISGLRFDTQLKTLCQFP [E14D] | 2.37 |
| GERVVICISGLRFETQLKTLCQFP [N7C] | 2.1 |
| GERVVIYISGLRFETQLKTLCQFP [N7Y] | 1.8 |
| GERVVIQISGLRFETQLKTLCQFP [N7Q] | 2.66 |
| GERVVIDISGLRFETQLKTLCQFP [N7D] | 1.83 |
